Assay results as given in the supplement of paper PMC9112550, “Optimization of the antimicrobial peptide Bac7 by deep mutational scanning” (BMC Biology, 2022).

Tested on: Escherichia coli TOP10
Assay: shrunken log2 fold change of peptide-encoding DNA abundance (4.5 h post-induction vs induction); higher = less antimicrobial activity (less host growth inhibition)
Settings: time post-induction: 4.5 h; library: site-saturation at positions 5, 18, 19, 20
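Also: peptides expressed intracellularly from a pBAD plasmid library in pooled LB shake-flask culture, induced with 0.3% L-arabinose, DNA abundance read by NGS, three biological replicates, DESeq2 with apeglm shrinkage.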

Row | Sequence | shrunken log2 fold change
1 | RRIRMRPPRLPRPRPRPGQDPRP | 0.781
2 | RRIRMRPPRLPRPRPRPGRCPRP | 1.02
3 | RRIRMRPPRLPRPRPRPGRDPRP | 1.4
4 | RRIRMRPPRLPRPRPRPGRNPRP | 0.344
5 | RRIRMRPPRLPRPRPRPGTGPRP | 0.596
6 | RRIRMRPPRLPRPRPRPGVEPRP | 1.39
7 | RRIRMRPPRLPRPRPRPGVGPRP | 0.841
8 | RRIRMRPPRLPRPRPRPGVYPRP | 0.104
9 | RRIRMRPPRLPRPRPRPGWIPRP | -0.0121
10 | RRIRMRPPRLPRPRPRPGWNPRP | 0.226
11 | RRIRMRPPRLPRPRPRPGYTPRP | -0.177
12 | RRIRMRPPRLPRPRPRPHEYPRP | -0.308
13 | RRIRMRPPRLPRPRPRPHGKPRP | -0.0884
14 | RRIRMRPPRLPRPRPRPHGVPRP | 0.023
15 | RRIRMRPPRLPRPRPRPHLAPRP | 1.6
16 | RRIRMRPPRLPRPRPRPHLNPRP | 0.176
17 | RRIRMRPPRLPRPRPRPHLYPRP | -0.0224
18 | RRIRMRPPRLPRPRPRPHMGPRP | -0.0941
19 | RRIRMRPPRLPRPRPRPHMNPRP | -0.0129
20 | RRIRMRPPRLPRPRPRPHPHPRP | 0.187
21 | RRIRMRPPRLPRPRPRPHPNPRP | 0.299
22 | RRIRMRPPRLPRPRPRPHQGPRP | 0.013

Row | Sequence | shrunken log2 fold change
23 | RRIRMRPPRLPRPRPRPHQKPRP | -0.0408
24 | RRIRMRPPRLPRPRPRPHRCPRP | 0.15
25 | RRIRMRPPRLPRPRPRPHSCPRP | 0.0321
26 | RRIRMRPPRLPRPRPRPHSDPRP | 2.6
27 | RRIRMRPPRLPRPRPRPHSHPRP | 0.0536
28 | RRIRMRPPRLPRPRPRPHSRPRP | 0.211
29 | RRIRMRPPRLPRPRPRPHWMPRP | -0.137
30 | RRIRMRPPRLPRPRPRPHYFPRP | -0.0364
31 | RRIRMRPPRLPRPRPRPIADPRP | -0.00229
32 | RRIRMRPPRLPRPRPRPIAKPRP | 0.494
33 | RRIRMRPPRLPRPRPRPIAMPRP | 0.0028
34 | RRIRMRPPRLPRPRPRPICDPRP | 0.36
35 | RRIRMRPPRLPRPRPRPICYPRP | -0.119
36 | RRIRMRPPRLPRPRPRPIDPPRP | -0.0553
37 | RRIRMRPPRLPRPRPRPIDRPRP | -0.0322
38 | RRIRMRPPRLPRPRPRPIFHPRP | -0.00123
39 | RRIRMRPPRLPRPRPRPIFKPRP | 0.161
40 | RRIRMRPPRLPRPRPRPIFMPRP | -0.0298
41 | RRIRMRPPRLPRPRPRPIGWPRP | 0.599
42 | RRIRMRPPRLPRPRPRPIHIPRP | -0.221
43 | RRIRMRPPRLPRPRPRPIHPPRP | -0.0207
44 | RRIRMRPPRLPRPRPRPIIDPRP | -0.399

Row | Sequence | shrunken log2 fold change
45 | RRIRMRPPRLPRPRPRPILIPRP | 0.0587
46 | RRIRMRPPRLPRPRPRPILKPRP | -0.206
47 | RRIRMRPPRLPRPRPRPILNPRP | -0.248
48 | RRIRMRPPRLPRPRPRPILQPRP | 0.133
49 | RRIRMRPPRLPRPRPRPILTPRP | 0.168
50 | RRIRMRPPRLPRPRPRPINDPRP | -0.401
51 | RRIRMRPPRLPRPRPRPINLPRP | -0.0139
52 | RRIRMRPPRLPRPRPRPINMPRP | -0.0607
53 | RRIRMRPPRLPRPRPRPINWPRP | -0.011
54 | RRIRMRPPRLPRPRPRPIPHPRP | 0.246
55 | RRIRMRPPRLPRPRPRPIPNPRP | 0.983
56 | RRIRMRPPRLPRPRPRPIRAPRP | 0.3
57 | RRIRMRPPRLPRPRPRPISEPRP | 0.151
58 | RRIRMRPPRLPRPRPRPIVLPRP | -0.0572
59 | RRIRMRPPRLPRPRPRPIVPPRP | 0.208
60 | RRIRMRPPRLPRPRPRPIWTPRP | 0.12
61 | RRIRMRPPRLPRPRPRPIWWPRP | 0.124
62 | RRIRMRPPRLPRPRPRPIYRPRP | -0.0679
63 | RRIRMRPPRLPRPRPRPKAEPRP | 3.05
64 | RRIRMRPPRLPRPRPRPKALPRP | 0.025
65 | RRIRMRPPRLPRPRPRPKAMPRP | 0.705
66 | RRIRMRPPRLPRPRPRPKCKPRP | 0.365

Row | Sequence | shrunken log2 fold change
67 | RRIRMRPPRLPRPRPRPKCRPRP | 0.0493
68 | RRIRMRPPRLPRPRPRPKEDPRP | 1.82
69 | RRIRMRPPRLPRPRPRPKFCPRP | 0.0393
70 | RRIRMRPPRLPRPRPRPKFKPRP | -0.0108
71 | RRIRMRPPRLPRPRPRPKHCPRP | 0.0651
72 | RRIRMRPPRLPRPRPRPKHRPRP | 0.229
73 | RRIRMRPPRLPRPRPRPKIVPRP | 0.0132
74 | RRIRMRPPRLPRPRPRPKKHPRP | 0.405
75 | RRIRMRPPRLPRPRPRPKLFPRP | 0.244
76 | RRIRMRPPRLPRPRPRPKLMPRP | 0.718
77 | RRIRMRPPRLPRPRPRPKLPPRP | 1.13
78 | RRIRMRPPRLPRPRPRPKMDPRP | 1.2
79 | RRIRMRPPRLPRPRPRPKMHPRP | 0.42
80 | RRIRMRPPRLPRPRPRPKNPPRP | 0.145
81 | RRIRMRPPRLPRPRPRPKNVPRP | -0.16
82 | RRIRMRPPRLPRPRPRPKNWPRP | 0.671
83 | RRIRMRPPRLPRPRPRPKPAPRP | 1.55
84 | RRIRMRPPRLPRPRPRPKPPPRP | 1.64
85 | RRIRMRPPRLPRPRPRPKQAPRP | 3.56
86 | RRIRMRPPRLPRPRPRPKQFPRP | 0.255
87 | RRIRMRPPRLPRPRPRPKQKPRP | 0.0402
88 | RRIRMRPPRLPRPRPRPKQPPRP | 2.34

Row | Sequence | shrunken log2 fold change
89 | RRIRMRPPRLPRPRPRPKRFPRP | 0.483
90 | RRIRMRPPRLPRPRPRPKRIPRP | 0.609
91 | RRIRMRPPRLPRPRPRPKRYPRP | 0.407
92 | RRIRMRPPRLPRPRPRPKSIPRP | 0.301
93 | RRIRMRPPRLPRPRPRPKTIPRP | 0.0873
94 | RRIRMRPPRLPRPRPRPKVSPRP | 0.0176
95 | RRIRMRPPRLPRPRPRPKWHPRP | 0.349
96 | RRIRMRPPRLPRPRPRPKWMPRP | 0.21
97 | RRIRMRPPRLPRPRPRPKYHPRP | -0.488
98 | RRIRMRPPRLPRPRPRPKYIPRP | -0.161
99 | RRIRMRPPRLPRPRPRPKYKPRP | -0.0345
100 | RRIRMRPPRLPRPRPRPLDWPRP | 0.474
101 | RRIRMRPPRLPRPRPRPLEIPRP | 0.103
102 | RRIRMRPPRLPRPRPRPLFAPRP | 0.556
103 | RRIRMRPPRLPRPRPRPLFKPRP | -0.0689
104 | RRIRMRPPRLPRPRPRPLFLPRP | -0.254
105 | RRIRMRPPRLPRPRPRPLIHPRP | -0.207
106 | RRIRMRPPRLPRPRPRPLIYPRP | -0.0335
107 | RRIRMRPPRLPRPRPRPLLSPRP | 0.17
108 | RRIRMRPPRLPRPRPRPLMSPRP | 0.00915
109 | RRIRMRPPRLPRPRPRPLMWPRP | 0.268
